Source: patent US20200317768A1 (published 2020)
Numbering of substitutions follows the chain as printed.

T1: human FcγRIIaH extracellular domain with C-terminal His-tag (human, UniProt P12318 34-217)
T1 construct: also called human FcgRIIaH; FcγRIIa (type H)
T1 sequence: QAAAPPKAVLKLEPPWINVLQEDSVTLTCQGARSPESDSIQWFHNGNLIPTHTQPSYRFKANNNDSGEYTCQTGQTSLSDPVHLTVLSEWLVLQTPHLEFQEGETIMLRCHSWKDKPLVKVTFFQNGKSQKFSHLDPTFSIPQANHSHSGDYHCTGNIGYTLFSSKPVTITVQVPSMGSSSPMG

T2: human FcγRIIaR extracellular domain with C-terminal His-tag (human, UniProt P12318 34-217)
T2 construct: also called human FcgRIIaR; FcγRIIa (type R)
T2 chain: T1 sequence with H134R

T3: cynomolgus monkey FcγRIIb extracellular domain with C-terminal His-tag (cynomolgus monkey)
T3 construct: also called cyno FcgRIIb; cynoFcγRIIb
T3 chain: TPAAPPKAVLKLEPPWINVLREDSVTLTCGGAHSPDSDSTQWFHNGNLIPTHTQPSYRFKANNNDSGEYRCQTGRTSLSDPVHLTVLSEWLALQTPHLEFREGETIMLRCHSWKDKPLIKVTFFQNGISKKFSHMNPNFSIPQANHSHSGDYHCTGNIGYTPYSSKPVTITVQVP

T4: cynomolgus monkey FcγRIIa1 extracellular domain with C-terminal His-tag (cynomolgus monkey)
T4 construct: also called cyno FcgRIIa1; cynoFcγRIIa1
T4 chain: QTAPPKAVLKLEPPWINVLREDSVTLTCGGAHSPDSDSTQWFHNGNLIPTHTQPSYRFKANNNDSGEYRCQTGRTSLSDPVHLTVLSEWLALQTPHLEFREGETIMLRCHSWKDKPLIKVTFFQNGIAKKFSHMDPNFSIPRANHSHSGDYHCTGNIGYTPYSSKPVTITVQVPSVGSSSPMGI

T5: cynomolgus monkey FcγRIIa2 extracellular domain with C-terminal His-tag (cynomolgus monkey)
T5 construct: also called cyno FcgRIIa2; cynoFcγRIIa2
T5 chain: T4 chain with P95T, T121A, I127K, A128S, K130N, D135N, R142Q

T6: cynomolgus monkey FcγRIIIaS extracellular domain with C-terminal His-tag (cynomolgus monkey, UniProt Q8SPW2 21-206 at identity 1.00))
T6 construct: also called cyno FcgRIIIaS; cynoFcγRIIIaS
T6 chain: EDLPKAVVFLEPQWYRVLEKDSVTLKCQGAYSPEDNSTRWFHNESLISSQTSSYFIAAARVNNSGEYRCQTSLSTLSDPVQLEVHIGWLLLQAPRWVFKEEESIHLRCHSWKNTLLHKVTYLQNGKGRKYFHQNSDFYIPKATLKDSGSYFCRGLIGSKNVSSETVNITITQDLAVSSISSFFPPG

T7: cynomolgus monkey FcγRIIa3 extracellular domain with C-terminal His-tag (cynomolgus monkey)
T7 construct: also called cyno FcgRIIa3; cynoFcγRIIa3
T7 chain: T4 chain with P95T, T121A, A128S, H133P, D135N

B1: M103205H795-MY530/M103202L889-SK1 (antibody, human IgG1, kappa)
heavy: QVTLKESGPVLVKPTETLTLTCTVSGIDLSHDDISWVRQAPGKGLEWVGIISYAGSTYYASWAKGRLTISKDTSKNQVVLTMTNMDPVDTATYYCARGVPAYSHGGDLWGQGTLVTVSSASTKGPSVFPLAPSSKSTSGGTAALGCLVKDYFPEPVTVSWNSGALTSGVHTFPAVLQSSGLYSLSSVVTVPSSSLGTQTYICNVNHKPSNTKVDKKVEPKSCDKTHTCPPCPAPELLTGPSVFLFPPKPKDTLMISRTPEVTCVVVDVSDEDPEVKFNWYVDGVEVHNAKTKPREEQYNSTYRVVSVLTVLHQDWLNGKEYKCKVSNTALPKPIEKTISKAKGQPREPQVYTLPPSREEMTKNQVSLTCLVKGFYPSDIAVEWESNGQPENNYKTTPPVLDSDGSFFLYSKLTVDKSRWQQGNVFSCSVMHEALHNHYTQKSLSLSP
light: DIVMTQSPATLSLSPGERATLSCTSSQSVYHANWLSWFQQKPGQPPKLLIYWASTLAYGVPSRFSGSGSGTDFTLTISSLQPEDAATYYCAGGYGGGRYAFGQGTKVEIKRTVAAPSVFIFPPSDEQLKSGTASVVCLLNNFYPREAKVQWKVDNALQSGNSQESVTEQDSKDSTYSLSSTLTLSKADYEKHKVYACEVTHQGLSSPVTKSFNRGEC
notes: Substitutions introduced into M103205H795-SG1, expressed with M103202L889-SK1 as light chain; EU numbering
B2: M103205H795-MY532/M103202L889-SK1 (antibody, human IgG1, kappa)
heavy: B1 heavy with L236W, S241V, T328K
light: B1 light
notes: as for B1
B3: M103205H795-MY531/M103202L889-SK1 (antibody, human IgG1, kappa)
heavy: B1 heavy with L236W
light: B1 light
notes: as for B1

molecular target: T1, human FcγRIIaH extracellular domain …; test: SPR (BIACORE), antibody captured, FcgR analyte

Kd	Binder
170 nM	B1
210 nM	B2
290 nM	B3

Molecular target: T2, human FcγRIIaR extracellular domain …
Test: SPR (BIACORE), antibody captured, FcgR analyte

Kd	Binder
270 nM	B1
190 nM	B2
410 nM	B3

Molecular target: T3, cynomolgus monkey FcγRIIb extracellular …
Test: SPR (BIACORE), antibody captured, FcgR analyte

Kd	Binder
320 nM	B1
230 nM	B2
270 nM	B3

Molecular target: T4, cynomolgus monkey FcγRIIa1 …
Test: SPR (BIACORE), antibody captured, FcgR analyte

Kd	Binder
13 nM	B1
770 nM	B2
1100 nM	B3

Molecular target: T5, cynomolgus monkey FcγRIIa2 …
Test: SPR (BIACORE), antibody captured, FcgR analyte

Kd	Binder
1100 nM	B1
600 nM	B2
920 nM	B3

Molecular target: T6, cynomolgus monkey FcγRIIIaS …
Test: SPR (BIACORE), antibody captured, FcgR analyte

Kd	Binder
850 nM	B1
860 nM	B2
1000 nM	B3

Molecular target: T7, cynomolgus monkey FcγRIIa3 …
Test: SPR (BIACORE), antibody captured, FcgR analyte

Kd	Binder
2500 nM	B1
740 nM	B2
2200 nM	B3

Molecular target: T7, cynomolgus monkey FcγRIIa3 …
Test: SPR (BIACORE); KD of SG1 / KD of variant;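 also: relative to parent M103205H795-SG1 carrying the SG1 human heavy chain constant region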

KD fold (SG1 = 1)	Binder
6.8 fold	B1
23 fold	B2
7.7 fold	B3
